In article PMC5127641 (2016) one finds Kd data, which are given here for seven molecules.

Common to all, as to test: BLI
The target of experiment [1] is T1, Bcl-w, biotinylated (C-terminal avi-6His) (human, UniProt Q92843 1-193, biotin (enzymatic, BirA)).
T1 chain: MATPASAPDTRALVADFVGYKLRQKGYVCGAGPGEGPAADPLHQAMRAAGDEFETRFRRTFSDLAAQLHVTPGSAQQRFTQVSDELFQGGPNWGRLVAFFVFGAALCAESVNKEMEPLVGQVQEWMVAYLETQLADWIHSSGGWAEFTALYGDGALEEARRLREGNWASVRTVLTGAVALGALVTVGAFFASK

For experiment [2], the target named is T2, Mcl-1, biotinylated (C-terminal avi-6His) (human, UniProt Q07820 1-350, biotin (enzymatic, BirA)).
T2 chain: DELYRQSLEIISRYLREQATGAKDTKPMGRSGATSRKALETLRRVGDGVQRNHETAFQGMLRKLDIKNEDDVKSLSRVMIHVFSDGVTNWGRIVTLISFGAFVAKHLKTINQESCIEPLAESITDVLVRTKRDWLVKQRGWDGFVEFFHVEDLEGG

The target in experiment [3] is T3, Bfl-1, biotinylated (C-terminal avi-6His) (human, UniProt Q16548 1-175, biotin (enzymatic, BirA)).
T3 chain: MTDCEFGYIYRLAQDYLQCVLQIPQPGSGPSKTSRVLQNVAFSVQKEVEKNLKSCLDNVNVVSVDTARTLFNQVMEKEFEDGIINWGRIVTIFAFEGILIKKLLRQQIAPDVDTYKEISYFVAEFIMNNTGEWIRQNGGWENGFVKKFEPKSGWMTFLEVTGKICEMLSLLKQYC

Experiment [4] addresses Bcl-xL, biotinylated (C-terminal avi-6His) (human, UniProt Q07817-1 1-233, biotin (enzymatic, BirA)).
Experiment [5] concerns the target T4, Bcl-B, biotinylated (C-terminal avi-6His) (human, UniProt Q9HD36 1-204, biotin (enzymatic, BirA)).
T4 chain: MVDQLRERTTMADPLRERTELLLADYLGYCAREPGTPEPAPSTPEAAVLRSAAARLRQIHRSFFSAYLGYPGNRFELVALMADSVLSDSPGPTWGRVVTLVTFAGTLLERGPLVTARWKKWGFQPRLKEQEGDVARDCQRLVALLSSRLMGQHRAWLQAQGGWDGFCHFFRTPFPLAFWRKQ

The target of experiment [6] is Bcl-2, biotinylated (C-terminal avi-6His) (human, UniProt P10415 1-239, biotin (enzymatic, BirA)).
Bcl-2, biotinylated (C-terminal avi-6His), sequence (P10415 1-207): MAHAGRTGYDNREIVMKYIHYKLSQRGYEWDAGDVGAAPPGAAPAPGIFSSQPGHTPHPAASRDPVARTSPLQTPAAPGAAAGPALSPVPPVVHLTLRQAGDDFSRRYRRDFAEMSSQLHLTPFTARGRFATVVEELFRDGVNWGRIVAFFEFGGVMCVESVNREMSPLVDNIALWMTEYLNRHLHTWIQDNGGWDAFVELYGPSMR

Bcl-xL, biotinylated (C-terminal avi-6His), sequence (Q07817 1-209): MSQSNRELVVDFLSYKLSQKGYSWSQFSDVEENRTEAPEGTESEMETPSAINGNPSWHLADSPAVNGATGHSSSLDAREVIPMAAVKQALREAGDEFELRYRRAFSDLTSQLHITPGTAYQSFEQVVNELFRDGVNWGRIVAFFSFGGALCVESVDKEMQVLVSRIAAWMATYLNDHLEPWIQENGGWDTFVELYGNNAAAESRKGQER

B1: 2-CDP06 (Bcl-2-targeting Computationally Designed Protein) (designed binder)
chain: MADPKKVLDKAKDEAENRVRELKQKLEELYKEARKLDLTQEMRQELVDKARAASLQAIGDIFYAILRALAEAEKLKKAGLVNSQQLDELKRRLEELAEEARRKAEKLGDEFRLKLEYG
Take B1: the Kd is 1700 nM in experiment [1]; over 50000 nM in experiment [2]; over 50000 nM in experiment [3]; 12000 nM in experiment [4]; over 50000 nM in experiment [5]; 9 nM in experiment [6].

B2: F-CDP01 (Bfl-1-targeting computationally designed protein) (designed binder)
chain: ADPKKVLDKAKDQAENRVRELKQKLEELYKEARKLDLTQEMRKKLQYAAIGAMLAAIGDILNAIMQAKQEADKLKKAGLVNSQQLDELKRRLEELKEEALRKAHDYGSEFYLKLEY
Take B2: the Kd turned out to be 4.6 nM in experiment [2], 2 nM in experiment [3], 11 nM in experiment [4] and 100000 nM in experiment [5].

B3: X-CDP07 (Bcl-xL-targeting computationally designed protein) (designed binder)
chain: ADPKKVLDKAKDRAENVVRKLKKELEELYKEARKLDLTQEMRDRIRLAAIAARIAAFGDIFHAIMEALEEARKLKKAGLVNSQQLDELKRRLEELDEEAAQRAEKLGKEFELKLEY
Regarding B3, the results for the Kd in experiment [3] and in experiment [6] were over 50000 nM and 4 nM, respectively.

B4: B-ECM01 (enriched combinatorial mutant of B-CDP01) (designed binder)
chain: ADPKKILDKAKDQVENRVRELKQELERLYKEARKLDLTQEMRRKLHVRYIAAMLKAIAAILNAIAQAENEADKLKKAGLVNSQQLDELRRRLEELTEEAAQKAHDYGREFQLKLEY
As for B4, the Kd in experiment [3] was determined as 2400 nM; in experiment [4], 7800 nM; in experiment [5], 80 nM.

B5: B-CDP01 (Bcl-B-targeting computationally designed protein) (designed binder)
chain: ADPKKVLDKAKDQAENRVRELKQELERLYKEARKLDLTQEMRRKLEWRYIAAMLKAIGDILNAIAQAENEADKLKKAGLVNSQQLDELRRRLEELAKEAARKAHDYGREFQLKLEY
For B5, the Kd is 2000 nM in experiment [1]; 0.46 nM in experiment [2]; 520 nM in experiment [3]; 20 nM in experiment [4]; 8 nM in experiment [5]; 17 nM in experiment [6].

B6: F-ECM04 (enriched combinatorial mutant of F-CDP01) (designed binder)
chain: ADPKKVLDKAKDQAENRVRELKQKLEELYKEARKLDLTQEMRKKLEVAALGAVLAAHGDILNAIMQAKEEADKLKKAGLVNSQQLDELKRRLEELKEEALRKASDYGKEFHLKRRY
On to B6, for which the Kd in experiment [1] was 3800 nM; in experiment [2] it was 300 nM; in experiment [3], 1.1 nM; in experiment [4], 540 nM; in experiment [5] it was 4000 nM.

B7: W-CDP03 (Bcl-w-targeting computationally designed protein) (designed binder)
chain: ADPKKVFDEAKDRAENNVRRLKQKLEELYKEARKKDLTQEEREKLKEKYKTAMAAAALAAIGDAFNALLKARKLHKNGQVNEQQLEELARRLQELAKEAFQKAKDYANEFEYKLEY
In the case of B7, the Kd in experiment [1] stood at 8 nM; in experiment [2], 57 nM; in experiment [3] it was 500 nM; in experiment [4], 7 nM; in experiment [5] it was 410 nM; in experiment [6], 30 nM.
